41 sequences from the nanobody polyreactivity screen of Harvey et al. (2022) can be followed below.

This data set can be described thus: yeast display, Sf9 membrane polyspecificity reagent, FACS + sequencing; frameworks hold sequencing errors. The method, boiled down:
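Nanobodies came from a synthetic yeast display library in Saccharomyces cerevisiae BJ5465, induced with galactose for 36–48 hours and stained for 1 hour at 4 °C with 10% biotinylated, detergent-solubilized Sf9 membrane reagent. Cells were enriched on streptavidin microbeads and then FACS-sorted, with low and high (top ~1%) gates set on anti-HA fluorescence for expression and streptavidin fluorescence for reagent binding. Each polyreactivity label reflects the gate a clone came from. Genes were amplified by colony PCR, sequenced by MiSeq 2 × 250 and filtered by CDR length.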
In the case of “QVQLVESGGGLVQAGGSLRLSCAASGRTFTVYTMGWYRQAPGKERELVAVISTGGRTYYADSVKGRFTISRDNAKNTVYLQMNSLNPEDTAVYYCAAKFTREYYWGQGTQVTVSS”, the “polyreactivity (PSR sort gate)” value was “high polyreactivity”.

As to “QVQLVESGGGLVQAGGSLRLSCAASGRTFTYNAMGWYRQAPGKERELDAAISWNGGRTYYADSVKGRFTISRDNAKNTVYLQMNSLKPEDTAVYYCAARSPKDSYSIQRYYWGQGTQVTVSS”, the “polyreactivity (PSR sort gate)” value is recorded as “high polyreactivity”.

In the case of “QVQLVESGGGLVQAGGSLRLSCAASGRTFTYNTMGWYRQAPGKERELVAAISSSGGSTYYADSVKGRFTISRDNAKNTVYLKMNCLKPEDTAVYYCAKRYFSSSRYYYWGQGTKVTVSS”, the “polyreactivity (PSR sort gate)” value is “high polyreactivity”.

In the case of “QVQLVESGGGLVQAGGSLRLSCAASGRTFTYYAMGWSRQAPGKERECVSAISSTGTSTYYADSVKGRFTISRDNAKNTVYLQMNSLKPEDTAVYYCNARVATYRLHSKFYYWGQGTQVTVSS”, the “polyreactivity (PSR sort gate)” value is on record as “high polyreactivity”.

As for “QVQLVESGGGLVQAGGSLRLSCAASGRTFTYYAMGWYRQAPGKERELVAAISSRGGSTYYADSVKGRFTISRDNAKNTVYLQMNSLNPEDTAVYYCAAVHRFTRASRWPDFDYWGQGTQVTVSS”, the “polyreactivity (PSR sort gate)” value is “high polyreactivity”.

Turning to “QVQLVESGGGLVQAGGSLRLSCAASGRTFTYYAMGWYRQAPGKERELVAAISSTGGSTYYADSVKGRFTISRDNAKNTVTLQMNSLKPEDTAVYYCNVAFDDFDYWGQGTQVTVSS”, the “polyreactivity (PSR sort gate)” value is recorded as “low polyreactivity”.

Turning to “QVQLVESGGGLVQAGGSLRLSCAASGRTFTYYAMGWYRQAPGKERELVAAITSGGRTYYADSVKGRFTISRDNAKNTVYLQMKSLKPEDTAVYYCAARRIRDYYRSYDYWGQGTQVTVSS”, the “polyreactivity (PSR sort gate)” value is “high polyreactivity”.

Consider “QVQLVESGGGLVQAGGSLRLSCAASGRTFTYYGMGWYRQAPGKERELVAAITERGDSTYYADSVKGRFTISRDNAKNTVYLQMNSLKPEDTAVYYCAAAEHLTRPSSPTQDGDHWGQGTQVTVSS”, for which the “polyreactivity (PSR sort gate)” value is on record as “low polyreactivity”.

With “QVQLVESGGGLVQAGGSLRLSCAASGRTFTYYSMGWYRQAPGKERELVAAISSGGRTNYADSVKGRFTISRDNAKNTVYLQMNSLKPEDTAVYYCAADGTTFRNRYYFHRMDFWGQGTQVTVSS”, the “polyreactivity (PSR sort gate)” value is “high polyreactivity”.

Turning to “QVQLVESGGGLVQAGGSLRLSCAASGRTFVANAMGWYRQAPGKEREFVAAITGGDSTYYADSVKGRFTISRDNAKNTVYLQMNSLKPEDTAVYYCAAPYNFWNFFDLIYVWDGYDYWGQGTQVTVSS”, the “polyreactivity (PSR sort gate)” value was “low polyreactivity”.

Regarding “QVQLVESGGGLVQAGGSLRLSCAASGRTFVDNGMGWYRQAPGKERELVAAITYSGGGTYYADSVKGRFTISRDNAKNTVYLQMNSLKPEDTAVYYCNAELGPVDYYGGVTPEYDYWGQGTQVTVSS”, the “polyreactivity (PSR sort gate)” value was “low polyreactivity”.

“QVQLVESGGGLVQAGGSLRLSCAASGRTFVFNAMGWYRQAPGKERELVAAISRSGGSTYYADSVKGRFTISRDNAKNTVYLQMNSLKTEDTAVYYCAADTPYLRRRLGMDYWGQGTQVTVSS”: the “polyreactivity (PSR sort gate)” value is listed as “high polyreactivity”.

For “QVQLVESGGGLVQAGGSLRLSCAASGRTFVFNDMGWYRQAPGKERELVAAITKNGGSTYYADSVKGRFTISRDTAKNTVYLHMNSLKPEDTAVYYSNASFQYYDYWGQGTQVTVSS”, the “polyreactivity (PSR sort gate)” value is recorded as “low polyreactivity”.

With “QVQLVESGGGLVQAGGSLRLSCAASGRTFVFYAMGWYRPAPGKERQLVAAITSGTSTNYADSVKGRFTISRDNAKNTGYLQMNSLNPEDTAVYYCAAYWTDLTYSIGFGYWGQGTQVTVSS”, the “polyreactivity (PSR sort gate)” value is “low polyreactivity”.

Consider “QVQLVESGGGLVQAGGSLRLSCAASGRTFVHNDMGWYRQAPGKERQLVAAINVSDGSTYYADSVKGRFTISRDNAKNTVYFQMNSLKPEDTAVYYCAKASYIIFRFEYRSGYDYWGQGTQVTVSS”, for which the “polyreactivity (PSR sort gate)” value is given as “low polyreactivity”.

As to “QVQLVESGGGLVQAGGSLRLSCAASGRTFVHYAMGWYRPAPGKERELVAAITWNGGRTYYADSVKGRFTISRDNAKNTVYLQMNSLKPEDTAVYYCAADGKYYHRRPGWPIYDYWGQGTQVTVSS”, the “polyreactivity (PSR sort gate)” value is “high polyreactivity”.

As for “QVQLVESGGGLVQAGGSLRLSCAASGRTFVIYDMGWYRQAPGKERELVAGITRSGGSTYADSVKGRFTISRDNAKNTVYLQMNSLKPEDTAVYYCARRKLYHKSPYDYWGQGTQVTVSS”, the “polyreactivity (PSR sort gate)” value is “low polyreactivity”.

“QVQLVESGGGLVQAGGSLRLSCAASGRTFVKNAMGWYRLAPGKERELVAAISRRGGSTYYADSVKGRFTISRDNAKNTVYLQMNSRKPEDTAVYYCAAPYTRPTTGYDYWGQGTQVTVSS”: the “polyreactivity (PSR sort gate)” value is on record as “high polyreactivity”.

For “QVQLVESGGGLVQAGGSLRLSCAASGRTFVKNAMGWYRQAPGKERELVATISSSGASTRYADSVKGRFTISRDNAKNTVYLQMNSLKPDDSAVYYCAAGYGFPRDYWGQGTQVTVSS”, the “polyreactivity (PSR sort gate)” value was “high polyreactivity”.

In the case of “QVQLVESGGGLVQAGGSLRLSCAASGRTFVKNAMGWYRQAPGKERELVAVISQSGGSTYYADSVKGRFTISRDNAKNTVYLQMNCLKPEDTAVYYCAARYSYYRQGDSWYNYNYWGQGTQVTVSS”, the “polyreactivity (PSR sort gate)” value is listed as “high polyreactivity”.

Consider “QVQLVESGGGLVQAGGSLRLSCAASGRTFVKYAMGWYRQAPGKERELVAAISWSGGSTYYADSVKGRFTISRDKAKNTVYLQMNSLKPEDTAVYYCAAPSSRGQGRNFDYWGQGTQVTVSS”, for which the “polyreactivity (PSR sort gate)” value is “high polyreactivity”.

As to “QVQLVESGGGLVQAGGSLRLSCAASGRTFVLNAMGWYRPAPGKERELVAAITLGGGSTYADSVKGRFTISRDNAKNTVYLQMNSLKPEDTAVYYCAADFHYPAFEYWGQGTQVTVSS”, the “polyreactivity (PSR sort gate)” value is listed as “low polyreactivity”.

Turning to “QVQLVESGGGLVQAGGSLRLSCAASGRTFVPYAMGRYRQAPGKERELVAAISSSGGSTYYADSVKGRFTISRDNAKNTVYLQMNSLKPEDTAVYFCAAKSRKGGDYWGQGTQVTVSS”, the “polyreactivity (PSR sort gate)” value is given as “high polyreactivity”.

Turning to “QVQLVESGGGLVQAGGSLRLSCAASGRTFVPYAMGWYRQAPGKERELVAAITWSGGRTRYADSVKGRFTISRDNAKNTVYLQMNSLKPEDTAVYYCARYYWLYSSSYDYWGQGTQVTVSS”, the “polyreactivity (PSR sort gate)” value is recorded as “high polyreactivity”.

As to “QVQLVESGGGLVQAGGSLRLSCAASGRTFVPYDMGWYRQAPGKERELVAAISSGDSTNYTDSVKGRFTISRDNAKNTVYLQMNSLKPEDTAVYYCAADLTYTMDHWGQGTQVTVSS”, the “polyreactivity (PSR sort gate)” value was “low polyreactivity”.

For the sequence “QVQLVESGGGLVQAGGSLRLSCAASGRTFVQNAMGWYRQAPGKERELVAAITWSTSGTYYADSVKGRFTISRDNAKNTVYLQMNSLKPEDTAVYYCAKYLAAYTGGGGYWGQGTQVTVSS”, the “polyreactivity (PSR sort gate)” value is listed as “low polyreactivity”.

Take “QVQLVESGGGLVQAGGSLRLSCAASGRTFVQNAMGWYRQAPGKERELVASIRYRDGSTYYADSVKGRFTISRDNAKNTVYLQMNSLKREDTAVYYCAVRIGARGRGGKDRVYYWGQGTQVTVSS”: the “polyreactivity (PSR sort gate)” value is reported as “high polyreactivity”.

In the case of “QVQLVESGGGLVQAGGSLRLSCAASGRTFVRYAMGWYRQAPGKEREFVAAITGSGGITYYADSVKGRFTISRDNAKNTVYLQMNSLKPEDTAVYYCAARGGFGRYWYDYWGQGTQVTVSS”, the “polyreactivity (PSR sort gate)” value is “high polyreactivity”.

For “QVQLVESGGGLVQAGGSLRLSCAASGRTFVRYAMGWYRQAPGKERELVAAISWSGATTYYADSVKGRFTISRDNAKNTVYLQMNSLKPEDTAVYYCAARFRRGITYEYWGQGTQVTVSS”, the “polyreactivity (PSR sort gate)” value is reported as “high polyreactivity”.

With “QVQLVESGGGLVQAGGSLRLSCAASGRTFVRYTMGWYRQAPVKERELVATISYNGGRTYYADSVKGRFTISRDNAKNTVYLQMNSLKPEDTAVYYCATRLPKSSLHDYWGQGTQVTVSS”, the “polyreactivity (PSR sort gate)” value is reported as “high polyreactivity”.

“QVQLVESGGGLVQAGGSLRLSCAASGRTFVSNAMGWYRQAPGKERELVARITGSGGTTYYADSVKGRFTISRDNAKNTVYLQMNSLKPEDTAVYYCNADVFRKFGSPSAYKSHRYDYWGQGTQVTVSS”: the “polyreactivity (PSR sort gate)” value was “low polyreactivity”.

As to “QVQLVESGGGLVQAGGSLRLSCAASGRTFVSYAMGWYRQAPGKERELVATITGSTGGTYYADSVKGRFTISRDNAKNTVYLQMNSLKPEDTAVYYCNKDYYYNPGNVASGYDYWGQGTQVTVSS”, the “polyreactivity (PSR sort gate)” value is given as “low polyreactivity”.

As to “QVQLVESGGGLVQAGGSLRLSCAASGRTFVSYVMGWYRQAPGKERELVAAIDQSGDRTYYPDSVKGRFTISRDNAKNTVYLQMNSLKPEDTAVYYCASRWGYSSRPYYYWGQGTQVTVSS”, the “polyreactivity (PSR sort gate)” value was “high polyreactivity”.

With “QVQLVESGGGLVQAGGSLRLSCAASGRTFVTNAMGWSRQAPGKERELVAAISSGDRTYYADSVKGRFTISRDNAKNTVYLQMNSLKPEDTAVYYCAKVSRRGIVGYWGQGTQVTVSS”, the “polyreactivity (PSR sort gate)” value is “high polyreactivity”.

“QVQLVESGGGLVQAGGSLRLSCAASGRTFVTNAMGWYRQAPGKETELVAAISGTGGSTYYADSVKGRFTISRDNAKNTVYLQMNSLKPEDTAVYYCAAQKWRRGRYRDTAGPLFAYDYWGQGTQVTVSS”: the “polyreactivity (PSR sort gate)” value is “low polyreactivity”.

Take “QVQLVESGGGLVQAGGSLRLSCAASGRTFVTYTMGWYRPAPGKERELVAAISRDGRTYYADSVKGRFTISRDNAKNTVYLQMNSLKPEDTAVYYCATRYKSPSFDYWGQGTQVTVSS”: the “polyreactivity (PSR sort gate)” value is recorded as “high polyreactivity”.

With “QVQLVESGGGLVQAGGSLRLSCAASGRTFVVYAMGWYRQAPGKERELVAAITSSGNTYYADSVKGRFTISRDNAKNTVYLQMNSLKPEDTAVYYCAAYSLYGYDYWGQGTQVTVSS”, the “polyreactivity (PSR sort gate)” value is “low polyreactivity”.

On to “QVQLVESGGGLVQAGGSLRLSCAASGRTFVWNAMGWYRQAPGKERELVAAISSSGGSTYYADSVKGRFTISRDNAKNTVYLQMNSLKPEDTAVYYCAARRASGFDWGQGTQVTVSS”, for which the “polyreactivity (PSR sort gate)” value is recorded as “high polyreactivity”.

Regarding “QVQLVESGGGLVQAGGSLRLSCAASGRTFVWNAMGWYRQAPGTERELVAAITSGGSTNYADSVKGRFTISRDNAKNTVYLQMNSLIPEDTAVYYCGAVWQYSPRMDYWGQGTQVTVSS”, the “polyreactivity (PSR sort gate)” value is “low polyreactivity”.

As for “QVQLVESGGGLVQAGGSLRLSCAASGRTFVWYVMGWYRQAPGKERELVAAISLRGGTTYYADSVKGRFTISRDNAKNTVYLQMNSLKPEDTAVYYCAIAGIRHVTSKFKGYHFGYWGQGTQVTVSS”, the “polyreactivity (PSR sort gate)” value is “low polyreactivity”.

In the case of “QVQLVESGGGLVQAGGSLRLSCAASGRTFVYKAMGWYRQSPGKERELVAALDGGGDRTYYADSVKGRFTISRDNAKNTVYLQMNSLKPEDTAVYYCARDPGDTYYYSYPEGDYWGEGTQVTVSS”, the “polyreactivity (PSR sort gate)” value is listed as “low polyreactivity”.
